The source of these data is patent US20230125550A1 (ARCELLX, published 2023).

Sequences and labels used below:
T1: recombinant human CD123-Fc (human, UniProt P26951 19-305)
T1 construct: not shown: Fc part of CD123-Fc
T1 sequence: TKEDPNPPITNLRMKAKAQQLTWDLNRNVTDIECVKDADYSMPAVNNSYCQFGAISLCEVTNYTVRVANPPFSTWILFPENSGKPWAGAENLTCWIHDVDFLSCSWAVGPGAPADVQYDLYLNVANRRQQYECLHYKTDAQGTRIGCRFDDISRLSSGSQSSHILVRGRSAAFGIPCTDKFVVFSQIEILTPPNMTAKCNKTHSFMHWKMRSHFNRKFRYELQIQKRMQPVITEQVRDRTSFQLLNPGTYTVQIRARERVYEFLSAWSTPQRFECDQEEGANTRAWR

B1: SEQ ID NO 686 (designed binder)
chain: MGSWYEFYDRLDAIEWRLWALGGSEAELAAFEKEIAAFESELQAYKGKGNPEVEWLRDEAAQIRDFLQAYRHN
B2: SEQ ID NO 713 (designed binder)
chain: MGSWYEFWDRLEAIEDRLWALGGSEAELAAFEKEIAAFESELQAYKGKGNPEVEFLRYSAAEIRYQLQAYRHN
B3: SEQ ID NO 690 (designed binder)
chain: MGSWYEFMVRLDAIEERLFALGGSEAELAAFEKEIAAFESELQAYKGKGNPEVEFLREEAASIRYHLQAYRHN
B4: SEQ ID NO 693 (designed binder)
chain: MGSWVEFEYRLDAITERLLALGGSEAELAAFEKEIAAFESELQAYKGKGNPEVEILREEAAFIRQWLQAYRHN
B5: SEQ ID NO 687 (designed binder)
chain: MGSWVEFYDRLDAIEHRLDALGGSEAELAAFEKEIAAFESELQAYKGKGNPEVEWLRDEAAFIRDMLQAYRHN
B6: SEQ ID NO 710 (designed binder)
chain: MGSWFEFEDRLDAIWDRLWALGGSEAELAAFEKEIAAFESELQAYKGKGNPEVEFLRMDAAMIRYILQAYRHN
B7: SEQ ID NO 689 (designed binder)
chain: MGSWFEFLDRLDAIEERLWALGGSEAELAAFEKEIAAFESELQAYKGKGNPEVEWLREEAAVIRDSLQAYRHN
B8: SEQ ID NO 694 (designed binder)
chain: MGSWWEFLDRLDAIEMRLFALGGSEAELAAFEKEIAAFESELQAYKGKGNPEVEYLREEAALIRNMLQAYRHN
B9: SEQ ID NO 705 (designed binder)
chain: MGSWVEFWDRLWAIEDRLWALGGSEAELAAFEKEIAAFESELQAYKGKGNPEVEHLRHYAADIRVWLQAYRHN
B10: SEQ ID NO 696 (designed binder)
chain: MGSWWEFESRLDAIFMRLTALGGSEAELAAFEKEIAAFESELQAYKGKGNPEVEDLREDAAFIREFLQAYRHN
B11: SEQ ID NO 695 (designed binder)
chain: MGSWWEFEDRLDAIEYRLFALGGSEAELAAFEKEIAAFESELQAYKGKGNPEVEFLREEAAFIRIFLQAYRHN
B12: SEQ ID NO 706 (designed binder)
chain: MGSWYEFADRLWAIEDRLWALGGSEAELAAFEKEIAAFESELQAYKGKGNPEVEFLRYYAADIRWVLQAYRHN
B13: SEQ ID NO 709 (designed binder)
chain: MGSWIEFESRLWAIEDRLLALGGSEAELAAFEKEIAAFESELQAYKGKGNPEVEFLRLEAADIREDLQAYRHN
B14: SEQ ID NO 688 (designed binder)
chain: MGSWFEFVDRLTAIQVRLWALGGSEAELAAFEKEIAAFESELQAYKGKGNPEVEYLREEAALIRYSLQAYRHN
B15: SEQ ID NO 711 (designed binder)
chain: MGSWEEFEDRLWAIEDRLWALGGSEAELAAFEKEIAAFESELQAYKGKGNPEVEILRYDAAYIREILQAYRHN
B16: SEQ ID NO 707 (designed binder)
chain: MGSWYEFEERLYAIEDRLYALGGSEAELAAFEKEIAAFESELQAYKGKGNPEVEFLRQEAADIRLMLQAYRHN
B17: SEQ ID NO 708 (designed binder)
chain: MGSWTEFEWRLYAIEDRLMALGGSEAELAAFEKEIAAFESELQAYKGKGNPEVEFLRDEAADIRQYLQAYRHN

The experiment deals with T1, recombinant human CD123-Fc. The experiment is described as follows: phage ELISA, A450 target/A450 IgG1-Fc. The method, boiled down:
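Individual phagemid colonies picked from panning output were rescued in 96-well format using VCSM13 helper phage. Plates received 1.3 microg/ml goat anti-human IgG1-Fc antibody, followed by 5 nM recombinant human target or IgG1-Fc, and then 50 microl of phage diluted 5× in ELISA blocking buffer. An HRP-conjugated anti-M13 antibody detected binding at 450 nm. For each clone, the ELISA ratio is the absorbance with target divided by that with IgG1-Fc, averaged over every screened well containing the clone.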
(An ELISA detects its analyte on a solid surface through an enzyme-linked reagent.)
In the case of B1, the ELISA_avg turned out to be 6.2 ratio.

As for B2, the ELISA_avg amounted to 4.2 ratio.

Consider B3, for which the ELISA_avg was determined as 4.1 ratio.

For B4, the ELISA_avg is 3.9 ratio. With B5 the figure was 3.4 ratio.

As to B6, the ELISA_avg amounted to 5.1 ratio. With B7 the figure was 12.2 ratio; with B8, 9 ratio; with B9, 4.5 ratio.

Regarding B10, the ELISA_avg stood at 3.7 ratio. Consider B11, for which the ELISA_avg is 4.9 ratio.

In the case of B12, the ELISA_avg stood at 4 ratio.

Consider B13, for which the ELISA_avg came out at 8.7 ratio. With B14 the figure was 5.1 ratio; with B15, 4.1 ratio; with B16, 11.5 ratio. As to B17, the ELISA_avg is 4.2 ratio.
